Reference: paper PMC11947285 (Nature Communications, 2025)

Target: the molecule itself
Assay: cryo-EM structure

B1: human XPR1 (Xenotropic and polytropic retrovirus receptor 1) (natural protein, UniProt Q9UBH6-1 1-696, looked up)
chain: MKFAEHLSAHITPEWRKQYIQYEAFKDMLYSAQDQAPSVEVTDEDTVKRYFAKFEEKFFQTCEKELAKINTFYSEKLAEAQRRFATLQNELQSSLDAQKESTGVTTLRQRRKPVFHLSHEERVQHRNIKDLKLAFSEFYLSLILLQNYQNLNFTGFRKILKKHDKILETSRGADWRVAHVEVAPFYTCKKINQLISETEAVVTNELEDGDRQKAMKRLRVPPLGAAQPAPAWTTFRVGLFCGIFIVLNITLVLAAVFKLETDRSIWPLIRIYRGGFLLIEFLFLLGINTYGWRQAGVNHVLIFELNPRSNLSHQHLFEIAGFLGILWCLSLLACFFAPISVIPTYVYPLALYGFMVFFLINPTKTFYYKSRFWLLKLLFRVFTAPFHKVGFADFWLADQLNSLSVILMDLEYMICFYSLELKWDESKGLLPNNSEESGICHKYTYGVRAIVQCIPAWLRFIQCLRRYRDTKRAFPHLVNAGKYSTTFFMVTFAALYSTHKERGHSDTMVFFYLWIVFYIISSCYTLIWDLKMDWGLFDKNAGENTFLREEIVYPQKAYYYCAIIEDVILRFAWTIQISITSTTLLPHSGDIIATVFAPLEVFRRFVWNFFRLENEHLNNCGEFRAVRDISVAPLNADDQTLLEQMMDQDDGVRNRQKNRSWKYNQSISLRRPRLASQSKARDTKVLIEDTDDEANT
stoichiometry N: 2
